Laboratory results: patent US20240368295A1 (SUTRO BIOPHARMA, published 2024)
Changes are numbered by the printed parent chain.

T1: BCMA on BCMA-positive NCI-H929, ARP-1 and U266B1 cells (human, UniProt Q02223 1-184)
T1 construct: they are human cell lines; also called B-cell maturation antigen; TNFRSF17
T1 sequence: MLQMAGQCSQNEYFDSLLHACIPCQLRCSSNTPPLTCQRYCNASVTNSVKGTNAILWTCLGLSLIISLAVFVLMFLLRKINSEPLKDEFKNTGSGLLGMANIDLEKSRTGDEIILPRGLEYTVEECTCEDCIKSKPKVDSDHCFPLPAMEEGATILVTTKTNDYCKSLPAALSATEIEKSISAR

B1: SRP2265-C03 (antibody, IgG1, V domains shown)
VH: EVQLVESGGGLVQPGGSLRLSCAAPGFNISVPGIHWVRQAPGKGLEWVGFINPAGGYTDYADSVKGRFTISADTSKNTAYLQMNSLRAEDTAVYYCARDYVPQYWTYVLDYWGQGTLVTVSS
VL: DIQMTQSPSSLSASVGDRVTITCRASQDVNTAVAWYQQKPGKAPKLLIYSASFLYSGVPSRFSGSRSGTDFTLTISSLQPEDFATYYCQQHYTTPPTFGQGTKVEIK
notes: IgG1 with trastuzumab light chain, His/FLAG-tagged, cell-free expressed; also called Antibody 11
B2: SRP2265-B06 (antibody, IgG1, V domains shown)
VH: B1 VH with P25S, S30R, P32S, P102Q, Q103A
VL: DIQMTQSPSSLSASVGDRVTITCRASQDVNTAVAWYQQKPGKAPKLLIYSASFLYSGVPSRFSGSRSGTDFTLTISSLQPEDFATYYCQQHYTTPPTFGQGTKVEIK
notes: IgG1 with trastuzumab light chain, His/FLAG-tagged, cell-free expressed; also called Antibody 5
B3: SRP2265-D11 (antibody, IgG1, V domains shown)
VH: B1 VH with P25S, V31G, G55A, V101I, P102Y
VL: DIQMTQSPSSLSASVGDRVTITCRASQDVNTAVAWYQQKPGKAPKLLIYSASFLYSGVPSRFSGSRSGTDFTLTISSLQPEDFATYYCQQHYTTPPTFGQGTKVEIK
notes: IgG1 with trastuzumab light chain, His/FLAG-tagged, cell-free expressed; also called Antibody 9
B4: SRP2265-C02 (antibody, IgG1, V domains shown)
VH: B1 VH with P25S, S30G, P32S, D62G, V101I, P102Y, Q103S
VL: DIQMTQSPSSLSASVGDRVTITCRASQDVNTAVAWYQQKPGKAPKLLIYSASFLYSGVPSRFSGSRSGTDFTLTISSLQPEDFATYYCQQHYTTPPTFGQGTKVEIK
notes: IgG1 with trastuzumab light chain, His/FLAG-tagged, cell-free expressed; also called Antibody 12
B5: SRP2291-E06 (antibody, IgG1, V domains shown)
VH: EVQLVESGGGLVQPGGSLRLSCAASGFNISPYTIHWVRQAPGKGLEWVAHIFPSGGYTDYADSVKGRFTISADTSKNTAYLQMNSLRAEDTAVYYCARDFYDRYATYVLDYWGQGTLVTVSS
VL: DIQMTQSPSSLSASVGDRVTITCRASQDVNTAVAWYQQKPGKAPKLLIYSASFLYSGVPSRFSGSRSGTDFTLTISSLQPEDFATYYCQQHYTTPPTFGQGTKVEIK
notes: IgG1 with trastuzumab light chain, His/FLAG-tagged, cell-free expressed; also called Antibody 25
B6: SRP2137-A05 (antibody, IgG1, V domains shown)
VH: EVQLVESGGGLVQPGGSLRLSCAASGFNINNSYIHWVRQAPGKGLEWVGWIYPYSGYTNYADSVKGRFTISADTSKNTAYLQMNSLRAEDTAVYYCARDYGPWYGTGVLDYWGQGTLVTVSS
VL: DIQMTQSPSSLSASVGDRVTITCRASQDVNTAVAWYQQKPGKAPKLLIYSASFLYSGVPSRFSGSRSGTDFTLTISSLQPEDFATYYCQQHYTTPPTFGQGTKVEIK
notes: IgG1 with trastuzumab light chain, His/FLAG-tagged, cell-free expressed; also called Antibody 14
B7: 9A8 (antibody, V domains shown)
VH: AVTLDESGGGLQTPGGTLSLVCKASGFTFSSFNMFWVRQAPGKGLEWVAYIRNDGNSASYGPAVKGRATISRDNGQSTVRLQLNNLRAEDTATYYCAKTTCIGSGGCIDTWGHGTEVIVSS
VL: ALTQPSSVSANPGETVKITCSGGSSDYGWFQQKSPGSAPVTVIYSNNQRPSGIPSRFSGSKSGSTGTLTITGVQAEDEAIYYCANVDYTDDVFGAGTTLTVL
notes: chicken HybriFree-derived antibody; also called Antibody 30
B8: 10G5 (antibody, V domains shown)
VH: B7 VH with T17V, R52S, N56S, A58T, Y95F
VL: B7 VL with S24N, S25Y, F30Y, V42L, S45Y, Q48K, G52D, Y88S
notes: chicken HybriFree-derived antibody; also called Antibody 31
B9: 11D6 (antibody, V domains shown)
VH: B7 VH with K43E, N56R, A58T, A92G, Y95F, I102V
VL: B7 VL with K17E, S24N, S45R, G52D, K61G, G66N, A84G, Y88F
notes: chicken HybriFree-derived antibody; also called Antibody 32
B10: SRP2290-C07 (antibody, IgG1, V domains shown)
VH: EVQLVESGGGLVQPGGSLRLSCAASGFNITYDWIHWVRQAPGKGLEWVGVITPFDGYTYYADSVKGHFTISADTSKNTAYLQMNSLRAEDTAVYYCARDMGVGYWVGFSDYWGQGTLVTVSS
VL: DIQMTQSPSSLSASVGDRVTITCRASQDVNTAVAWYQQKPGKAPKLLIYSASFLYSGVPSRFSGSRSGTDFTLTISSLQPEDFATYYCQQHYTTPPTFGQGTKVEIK
notes: IgG1 with trastuzumab light chain, His/FLAG-tagged, cell-free expressed; also called Antibody 19
B11: SRP2290-G01 (antibody, IgG1, V domains shown)
VH: B10 VH with T30S, Y31P, D32Y, F54P, D55S, Y57F, H67R, M83V, M100L
VL: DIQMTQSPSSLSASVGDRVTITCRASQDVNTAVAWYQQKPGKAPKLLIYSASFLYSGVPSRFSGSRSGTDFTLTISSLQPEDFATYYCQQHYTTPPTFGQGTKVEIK
notes: IgG1 with trastuzumab light chain, His/FLAG-tagged, cell-free expressed; also called Antibody 17

molecular target: T1, BCMA on BCMA-positive NCI-H929, ARP-1 …; experiment: FACS, NCI-H929 cells
Description: (§1) Variants for which sufficient protein was purified in secondary screening were tested in a fluorescence-activated cell sorting (FACS) cell-binding assay. […] 6-12 point dilutions of anti-BCMA variants starting from concentrations of about 100-200 nM antibody were dispensed into each well using a BioMekFX (Beckman Coulter). Cells were then incubated on ice for 1 hr, washed with FACS buffer and incubated for 1 hr on ice with […] FACS buffer containing […] Alexa647-conjugated Goat Anti-Human IgG dispensed using BioMekFX (Beckman Coulter). Cells were then washed 2× with FACS buffer and fixed for 10 minutes in […] PBS with 2% PFA prior to fluorescence detection. Samples were acquired using a Beckton Dickinson LSRII FACS. Geometric Mean Fluorescence Intensity of BCMA antibody binding was analyzed using FlowJo® software (Trec Star, Inc.).

First: B1
Second: B2
The “Bmax (MFI)” value of the first is lower: 11500 MFI for the first, 11900 MFI for the second.

First: B3
Second: B4
The “Bmax (MFI)” value of the first is lower: 9620 MFI for the first, 11200 MFI for the second.

Compared with B5, B6 is lower in “Bmax (MFI)” value: 34400 MFI for the first, 2690 MFI for the second.

Compared with B7, B8 is higher in “Bmax (MFI)” value: 21100 MFI for the first, 25800 MFI for the second.

With B9 the “Bmax (MFI)” value was 26400 MFI.

B1 and B2 are within 1.5-fold of each other in Kd: 4.4 nM for the first, 6.2 nM for the second.

B3 and B4 are within 1.5-fold of each other in Kd: 4.4 nM for the first, 4.3 nM for the second.

molecular target: T1, BCMA on BCMA-positive NCI-H929, ARP-1 …; experiment: cell-based or functional assay

B1 and B2 are within 1.5-fold of each other in “ARP-1, SC225-conjugated 2° antibody cell killing, EC50” value: 2.2 nM for the first, 1.6 nM for the second.

B3 and B4 are within 1.5-fold of each other in “ARP-1, SC225-conjugated 2° antibody cell killing, EC50” value: 1.9 nM for the first, 1.5 nM for the second.

Compared with B1, B2 is lower in “ARP-1, SC225-conjugated 2° antibody cell killing, Span” value: 70% for the first, 67% for the second.

First: B3
Second: B4
The “ARP-1, SC225-conjugated 2° antibody cell killing, Span” value of the first is lower: 51% for the first, 55% for the second.

Compared with B1, B2 is 1.8-fold lower in “U266B1, SC225-conjugated 2° antibody cell killing, EC50” value: 1.1 nM for the first, 0.6 nM for the second.

B3 and B4 are within 1.5-fold of each other in “U266B1, SC225-conjugated 2° antibody cell killing, EC50” value: 1 nM for the first, 0.7 nM for the second.

First: B1
Second: B2
The “U266B1, SC225-conjugated 2° antibody cell killing, Span” value of the first is higher: 61% for the first, 59% for the second.

Going from B3 to B4, the “U266B1, SC225-conjugated 2° antibody cell killing, Span” value falls from 54% to 51%.

molecular target: T1, BCMA on BCMA-positive NCI-H929, ARP-1 …; experiment: cell-based or functional assay; remark: another data set of the same source

Going from B10 to B11, the “U266B1, SC225-conjugated 2° antibody cell killing, EC50” value rises from 0.93 nM to 1.4 nM (1.5-fold).

With B5 the “U266B1, SC225-conjugated 2° antibody cell killing, EC50” value was 27 nM.

First: B10
Second: B11
The “U266B1, SC225-conjugated 2° antibody cell killing, Span” value of the first is higher: 75% for the first, 70% for the second.

B5 was tested, and the “U266B1, SC225-conjugated 2° antibody cell killing, Span” value was 1.1%.

molecular target: T1, BCMA on BCMA-positive NCI-H929, ARP-1 …; experiment: cell-based or functional assay; remark: another data set of the same source

B7 and B8 are within 1.5-fold of each other in “ARP-1, SC239-conjugated 2° antibody cell killing, EC50” value: 2.4 nM for the first, 3.5 nM for the second.

B9 was tested, and the “ARP-1, SC239-conjugated 2° antibody cell killing, EC50” value was 3.8 nM.

B7 and B8 are the same in “ARP-1, SC239-conjugated 2° antibody cell killing, Span” value: 82% for the first, 82% for the second.

With B9 the “ARP-1, SC239-conjugated 2° antibody cell killing, Span” value was 83%.

B7 and B8 are within 1.5-fold of each other in “U266B1, SC239-conjugated 2° antibody cell killing, EC50” value: 2.3 nM for the first, 1.9 nM for the second.

B9 was tested, and the “U266B1, SC239-conjugated 2° antibody cell killing, EC50” value was 1.1 nM.

First: B7
Second: B8
The “U266B1, SC239-conjugated 2° antibody cell killing, Span” value of the first is lower: 42% for the first, 63% for the second.

With B9 the “U266B1, SC239-conjugated 2° antibody cell killing, Span” value was 67%.

molecular target: cynomolgus BCMA on 293T-cynoBCMA cells (cynomolgus, UniProt Q02223 1-184 (human entry)); experiment: FACS, 293T-cynoBCMA cells
Sequence (Q02223 other isoform, or with tags, fused parts or gaps): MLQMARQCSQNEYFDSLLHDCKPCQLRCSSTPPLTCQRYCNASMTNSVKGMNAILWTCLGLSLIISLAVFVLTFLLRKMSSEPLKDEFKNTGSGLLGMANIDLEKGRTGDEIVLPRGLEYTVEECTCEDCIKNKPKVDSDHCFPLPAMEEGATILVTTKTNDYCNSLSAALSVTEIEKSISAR
Description: as §1

First: B10
Second: B11
The “Bmax (MFI)” value of the first is higher: 78100 MFI for the first, 77100 MFI for the second.

Compared with B1, B2 is higher in “Bmax (MFI)” value: 24100 MFI for the first, 26600 MFI for the second.

Compared with B3, B4 is lower in “Bmax (MFI)” value: 21900 MFI for the first, 17400 MFI for the second.

Compared with B5, B6 is lower in “Bmax (MFI)” value: 68300 MFI for the first, 1910 MFI for the second.

Compared with B7, B8 is higher in “Bmax (MFI)” value: 17800 MFI for the first, 24400 MFI for the second.

In the case of B9, the “Bmax (MFI)” value is reported as 27700 MFI.

B1 and B2 are within 1.5-fold of each other in Kd: 4.9 nM for the first, 3.4 nM for the second.

B3 and B4 are the same in Kd: 2.5 nM for the first, 2.5 nM for the second.
